Assay results as given in publication PMC3984155.

Legend:
[1] = target: Litopenaeus vannamei Proliferating Cell Nuclear Antigen (Litopenaeus vannamei); assay: crystal structure; X-ray, 3 Å, space group C2; crystals from 300 mM CaCl2, 100 mM sodium HEPES pH 7.5, 30% v/v PEG 400; molecular replacement
[2] = target: Litopenaeus vannamei Proliferating Cell Nuclear Antigen (Litopenaeus vannamei); assay: SEC; purified LvPCNA at 1 mg/ml on a Superdex 200 column, elution compared with known molecular-mass standards

“Litopenaeus vannamei Proliferating Cell Nuclear Antigen (natural protein)” showed a stoichiometry N [1] of 3 and a stoichiometry N [2] of 3.
